Source: patent US8178581B2, “Production of peracids using an enzyme having perhydrolysis activity” (E. I. du Pont de Nemours and Company, priority 2005, dated 2012)

B1: Novozymes Lipolase 100 L type EX: commercial lipase, source Thermomyces lanuginosus (Novozymes) (protein, UniProt O59952 23-291, looked up)
Lipase: EVSQDLFNQFNLFAQYSAAAYCGKNNDAPAGTNITCTGNACPEVEKADATFLYSFEDSGVGDVTGFLALDNTNKLIVLSFRGSRSIENWIGNLNFDLKEINDICSGCRGHDGFTSSWRSVADTLRQKVEDAVREHPDYRVVFTGHSLGGALATVAGADLRGNGYDIDVFSYGAPRVGNRAFAEFLTVQTGGTLYRITHTNDIVPRLPPREFGYSHSSPEYWIKSGTLVPVTRNDIVKIEGIDATGGNNQPNIPDIPAHLWYFGLIGTCL
B2: Novozymes Lipozyme TL 100 L: commercial lipase, source Thermomyces lanuginosus (Novozymes) (protein, UniProt O59952 23-291, looked up)
Lipase: B1 Lipase

Assay: Perhydrolysis of triacetin with hydrogen peroxide; peracetic acid measured by HPLC method of Karst et al.
Assay type: biochemical
Details: Table 14: triacetin 250 mM, H2O2 1.0 M, pH 6.5, 25° C., 50 μg/mL of commercial lipase
Method: Determination of the concentration of peracetic acid in the reaction mixture was performed according to the method described by Karst et al. Aliquots (0.250 mL) of the reaction mixture were removed at 10 min and 30 min and filtered using an Ultrafree® MC-filter unit (30,000 Normal Molecular Weight Limit (NMWL), Millipore cat #UFC3LKT 00) by centrifugation for 2 min at 12,000 rpm; removal of the protein component of the aliquot by filtration terminated the reaction. An aliquot (0.100 mL) of the resulting filtrate was transferred to 1.5-mL screw cap HPLC vial (Agilent Technologies, Palo Alto, Calif.; #5182-0715) containing 0.300 mL of deionized water, then 0.100 mL of 20 mM MTS (methyl-p-tolyl-sulfide) in acetonitrile was added, the vials capped, and the contents briefly mixed prior to a 10 min incubation at ca. 25° C. in the absence of light. To each vial was then added 0.400 mL of acetonitrile and 0.100 mL of a solution of triphenylphosphine (TPP, 40 mM) in acetonitrile, the vials re-capped, and the resulting solution mixed and incubated at ca. 25° C. for 30 min in the absence of light. To each vial was then added 0.100 mL of 10 mM N,N-diethyl-m-toluamide (DEET; HPLC external standard) and the resulting solution analyzed by HPLC as described below.
Supelco Discovery C8 column (10-cm×4.0-mm, 5 μm) (cat. #569422-U) w/precolumn Supelco Supelguard Discovery C8 (Sigma-Aldrich; cat #59590-U); 10 microliter injection volume; gradient method with CH3CN (Sigma-Aldrich; #270717) and deionized H2O at 1.0 mL/min and ambient temperature: […]
An extract of E. coli UM2/pSW186 transformant (20 mg total protein/mL extract, prepared as described in Example 21) was employed in 1.0 mL perhydrolysis reactions (run as described in Example 21) containing triacetin (40 mM or 100 mM), hydrogen peroxide (40 mM or 100 mM) and extract total protein (0.1 mg/mL or 1.0 mg/mL) in phosphate buffer (Pi, 100 mM, 200 mM or 300 mM) at pH 6.5 or 7.5 at 25° C. each reaction (Table 11).
(§1) Separate 1.0 mL reactions containing triacetin (250 mM), hydrogen peroxide (1.0 M) and 50 μg of extract total protein in 50 mM phosphate buffer (pH 6.5) were run at 25° C. with each transformant extract. […] The concentration of peracetic acid in the reaction mixtures (Table 12) was determined according to the method of Karst et al. as described in Example 2.
as §1, with “1-mL” for “1.0 mL”, “protein from a cell extract (prepared as described above)” for “protein”, “C.” for “C. with each transformant extract.”, “13)” for “12)”, “al.” for “al. as”, “2. […]” for “2.”

Molecule	PAA (ppm); 5 min	PAA (ppm); 30 min
B1	10 ppm	0 ppm
B2	125 ppm	370 ppm
